Values quoted from earlier work as cited in paper PMC10320286.
pKd: −log10 of the molar value.

Molecular target: IL-18BP (Homo sapiens) (UniProt O95998)
Sequence (O95998 31-194): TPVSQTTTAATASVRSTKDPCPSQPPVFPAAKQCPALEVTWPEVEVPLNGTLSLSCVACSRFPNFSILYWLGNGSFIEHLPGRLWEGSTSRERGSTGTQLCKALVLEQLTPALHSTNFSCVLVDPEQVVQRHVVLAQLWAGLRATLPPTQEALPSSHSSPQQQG

Chain of IL-18 (Q14116 37-193): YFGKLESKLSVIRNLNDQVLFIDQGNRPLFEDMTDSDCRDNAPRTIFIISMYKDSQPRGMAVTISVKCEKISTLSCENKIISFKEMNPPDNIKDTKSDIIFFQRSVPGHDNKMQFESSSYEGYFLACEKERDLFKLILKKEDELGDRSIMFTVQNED

## IL-18 (from UniProt Q14116)
  pKd: 10.42
